The series has as its target T1, bovine fibrinogen, P02672.
T1 chain 1: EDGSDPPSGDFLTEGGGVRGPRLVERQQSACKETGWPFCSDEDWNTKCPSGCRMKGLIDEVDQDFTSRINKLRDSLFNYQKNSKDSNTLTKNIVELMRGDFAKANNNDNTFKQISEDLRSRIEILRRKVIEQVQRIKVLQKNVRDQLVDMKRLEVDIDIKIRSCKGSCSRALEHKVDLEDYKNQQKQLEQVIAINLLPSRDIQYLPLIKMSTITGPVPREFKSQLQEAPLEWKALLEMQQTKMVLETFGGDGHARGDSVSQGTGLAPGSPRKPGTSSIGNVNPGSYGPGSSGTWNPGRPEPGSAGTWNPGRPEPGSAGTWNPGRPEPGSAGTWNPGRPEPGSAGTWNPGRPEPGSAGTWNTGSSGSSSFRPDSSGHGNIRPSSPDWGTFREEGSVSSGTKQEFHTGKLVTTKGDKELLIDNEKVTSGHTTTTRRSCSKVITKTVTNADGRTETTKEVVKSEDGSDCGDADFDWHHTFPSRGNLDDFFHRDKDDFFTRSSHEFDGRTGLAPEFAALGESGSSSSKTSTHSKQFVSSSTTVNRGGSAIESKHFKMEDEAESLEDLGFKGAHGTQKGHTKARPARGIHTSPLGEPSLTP
T1 chain 2: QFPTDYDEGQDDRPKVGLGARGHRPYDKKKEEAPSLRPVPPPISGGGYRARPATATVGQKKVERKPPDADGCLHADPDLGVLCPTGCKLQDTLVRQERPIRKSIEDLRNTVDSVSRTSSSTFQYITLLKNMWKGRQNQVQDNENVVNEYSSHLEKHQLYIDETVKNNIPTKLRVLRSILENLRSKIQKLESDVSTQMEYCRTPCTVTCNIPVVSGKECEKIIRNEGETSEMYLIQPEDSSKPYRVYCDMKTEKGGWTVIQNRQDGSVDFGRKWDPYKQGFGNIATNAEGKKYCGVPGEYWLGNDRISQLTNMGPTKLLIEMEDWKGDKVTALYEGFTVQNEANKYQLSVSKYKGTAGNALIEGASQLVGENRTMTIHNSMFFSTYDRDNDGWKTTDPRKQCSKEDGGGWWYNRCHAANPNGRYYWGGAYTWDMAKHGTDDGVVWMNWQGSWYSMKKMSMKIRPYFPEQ
T1 chain 3: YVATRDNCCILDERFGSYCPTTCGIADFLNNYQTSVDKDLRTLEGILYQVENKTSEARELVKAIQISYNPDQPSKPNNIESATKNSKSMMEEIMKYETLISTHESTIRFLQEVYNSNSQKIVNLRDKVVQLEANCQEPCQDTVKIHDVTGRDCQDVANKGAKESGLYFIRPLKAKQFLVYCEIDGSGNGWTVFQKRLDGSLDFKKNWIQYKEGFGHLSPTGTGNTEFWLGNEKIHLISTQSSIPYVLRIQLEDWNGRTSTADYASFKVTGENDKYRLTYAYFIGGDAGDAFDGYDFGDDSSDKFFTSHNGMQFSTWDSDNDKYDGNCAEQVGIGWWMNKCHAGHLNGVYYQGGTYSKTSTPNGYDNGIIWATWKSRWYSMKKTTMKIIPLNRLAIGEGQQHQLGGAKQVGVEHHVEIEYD

B1: recombinant fibrinlysin protein (protein)
chain: EQQRFPQRYIKLAIVVDHGMYTKYSSNFKKIRKRVHQMVSNINEMCRPLNIAITLALLDVWSEKDFITVQADAPTTAGLFGDWRERVLLKKKNHDHAQLLTDTNFARNTIGWAYVGRMCDEKYSVAVVKDHSSKVFMVAVTMTHELGHNLGMEHDDKDKCKCDTCIMSAVISDKQSKLFSDCSKDYYQTFLTNDNPQCILNAP
For B1, the “dose-dependent fibrinogenolytic assay in vitro: amount for complete digestion of the A alpha chain” value was “the Aα-chain of fibrinogen was completely digested with 4 µg of the refolded protein”, the “dose-dependent fibrinogenolytic assay in vitro: amount for complete digestion of the B beta chain” value is “The Bβ-chain was completely digested with 7 µg of the refolded protein”, the “dose-dependent fibrinogenolytic assay in vitro: amount for complete digestion of the gamma chain” value was “The γ-chain also was completely digested with 21 µg of the refolded protein” and the “time-dependent fibrinogenolytic assay in vitro: time to complete digestion of the A alpha chain” value was “the Aα-chain of fibrinogen was completely digested at 5 hr after incubation”. Also, the “time-dependent fibrinogenolytic assay in vitro: time to complete digestion of the B beta chain” value is recorded as “The Bβ-chain was completely digested after 7 hrs” and the “time-dependent fibrinogenolytic assay in vitro: time to complete digestion of the gamma chain” value is recorded as “the γ-chain was completely digested after 30 hrs”.

B2: Mucroslysin recombinant fusion protein (protein)
chain: SSIILESGNVNDYEVVYPRKVSALPKGAVQPKYEDAMQYEFKVNGEAVVLHLEKNKGLFSEDYSETHYSPDGREITTYPSVEDHCYYHGRIHNDADSTASISACDGLKGYFKLQGETYPIEPLELSDSEAHAVFKYENVEKEDEAPKMCGVTQNWESDESIKKASQLYLTPEQQRFPQRYIKLAIVVDHGMYTKYSSNFKKIRKRVHQMVSNINEMCRPLNIAITLALLDVWSEKDFITVQADAPTTAGLFGDWRERVLLKKKNHDHAQLLTDTNFARNTIGWAYVGRMCDEKYSVAVVKDHSSKVFMVAVTMTHELGHNLGMEHDDKDKCKCDTCIMSAVISDKQSKLFSDCSKDYYQTFLTNDNPQCILNAPLRTDTVSTPVSGNEFLEAGEECDCGSPENPCCDAATCKLRPGAQCAEGLCCDQCRFKKKRTICRRARGDNPDDRCTGQSADCPRNGLYG
Turning to B2, the “fibrinogenolytic assay, cleavage pattern on 10% SDS-PAGE: cleavage of the gamma chain” value was “Mucroslysin protein also exhibited the ability to cleave the γ-chain of fibrinogen”; the “fibrinogenolytic assay, cleavage pattern on 10% SDS-PAGE: start of digestion of the B beta chain” value is listed as “the digestion of the Bβ-chain began at 18 hr”; the “fibrinogenolytic assay, cleavage pattern on 10% SDS-PAGE: time to complete digestion of the A alpha chain” value is on record as “The Aα-chain of fibrinogen was completely digested at 18 hr after incubation”; the “fibrinogenolytic assay, cleavage pattern on 10% SDS-PAGE: time to complete digestion of the B beta chain” value was “The Bβ-chain was completely digested after 36 hrs”.

The record behind these values is patent publication US20040091887.
